Consider 4 molecules from patent publication US5532348 (United States of America, dated 1996).

Test [1] deals with T1, HPV11 E6, wheat germ extract translated (human papillomavirus type 11, UniProt P04019).
T1 sequence: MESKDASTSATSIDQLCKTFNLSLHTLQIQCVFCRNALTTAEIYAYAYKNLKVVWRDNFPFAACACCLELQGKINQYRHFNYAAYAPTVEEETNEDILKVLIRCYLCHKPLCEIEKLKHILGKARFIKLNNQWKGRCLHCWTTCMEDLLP
As to the kind of experiment: GST-E6-AP fusion on glutathione-Sepharose, 35S-labelled E6.

Test [2] addresses GST-p53 (glutathione S-transferase fusion of wild-type p53) (Homo sapiens (Human), UniProt P04637). As to the kind of experiment: GST-p53 pull-down of 35S-labelled E6-AP variant in the presence of HPV16 E6.
Test [3] deals with GST (with no fusion) (Schistosoma japonicum (Blood fluke), UniProt P08515 = GST). As to the kind of experiment: GST pull-down of 35S-labelled translate, no p53.
In test [4] the target is T2, GST fusion to HPV 11 E6 (human papillomavirus type 11, UniProt P04019).
T2 sequence: T1 sequence
As to the kind of experiment: GST pull-down of 35S-labelled translate, no p53.

B1: GST-75 kDa E6-AP fusion protein (amino acids 212-865 of SEQ ID NO:1) (other)
chain: DNNLQKLGPDDVSVDIDAIRRVYTRLLSNEKIETAFLNALVYLSPNVECDLTYHNVYSRDPNYLNLFIIGMENRNLHSPEYLEMALPLFCKAMSKLPLAAQGKLIRLWSKYNADQIRRMMETFQQLITYKVISNEFNSRNLVNDDDAIVAASKCLKMVYYANVVGGEVDTNHNEEDDEEPIPESSELTLQELLGEERRNKKGLRVDPLETELGVKTLDCRKPLIPFEEFINEPLNEVLEMDKDYTFFKVETENKFSFMTCPFILNAVTKNLGLYYDNRIRMYSERRITVLTSLVQGQQLNPYLRLKVRRKHIIDDALVRLEMIAMENPADLKKQLYVEFEGEQGVDEGGVSKEFFQLVVEEIFNPDIGMFTYDESTKLFWFNPSSFETEGQFTLIGIVLGLAIYNNCILDVHGPMVVYRKLMGKKGTFRDLGDSHPVLYQSLKDLLEYVGNVEDDMMITFQISQTNLFQNPMMYDLKENGDKIPITNENRKEFVNLYSDYILNKSVEKQFKAFRRGRHMVTNESPLKYLFRPEEIELLICGSRNLDFQALEETTEYDGGYTRDSVLIREFWEIVHSFTDEQKRLFLQFTTGRDRAPVGGLGKLKMIIAKNGPDTERLPTSHTCFNVLLLPEYSSKEKLKERLLKAITYAKGFGM
On to B1, for which, in test [1], the binding result is recorded as “no binding”.

B2: E6-AP N-terminally truncated form beginning at amino acid 322 (other)
chain: YNADQIRRMMETFQQLITYKVISNEFNSRNLVNDDDAIVAASKCLKMVYYANVVGGEVDTNHNEEDDEEPIPESSELTLQELLGEERRNKKGLRVDPLETELGVKTLDCRKPLIPFEEFINEPLNEVLEMDKDYTFFKVETENKFSFMTCPFILNAVTKNLGLYYDNRIRMYSERRITVLTSLVQGQQLNPYLRLKVRRKHIIDDALVRLEMIAMENPADLKKQLYVEFEGEQGVDEGGVSKEFFQLVVEEIFNPDIGMFTYDESTKLFWFNPSSFETEGQFTLIGIVLGLAIYNNCILDVHGPMVVYRKLMGKKGTFRDLGDSHPVLYQSLKDLLEYVGNVEDDMMITFQISQTNLFQNPMMYDLKENGDKIPITNENRKEFVNLYSDYILNKSVEKQFKAFRRGRHMVTNESPLKYLFRPEEIELLICGSRNLDFQALEETTEYDGGYTRDSVLIREFWEIVHSFTDEQKRLFLQFTTGRDRAPVGGLGKLKMIIAKNGPDTERLPTSHTCFNVLLLPEYSSKEKLKERLLKAITYAKGFGM
For B2, in test [2], the binding result is recorded as “no binding”.

B3: 95 kd in vitro translated form of E6-AP (amino acids 37 to 865 of SEQ ID NO:1) (other)
chain: EACTNEFCASCPTFLRMDNKAAAIKALELYKINAKLCDPHPSKKGASSAYLENSKGAPNNSCSEIKMNKKGARIDFKDVTYLTEEKVYEILELCREREDYSPLIRVIGRVFSSAEALVQSFRKVKQHTKEELKSLQAKDEDKDEDEKEKAACSAAAMEEDSEEASSSRIGDSSQGDNNLQKLGPDDVSVDIDAIRRVYTRLLSNEKIETAFLNALVYLSPNVECDLTYHNVYSRDPNYLNLFIIGMENRNLHSPEYLEMALPLFCKAMSKLPLAAQGKLIRLWSKYNADQIRRMMETFQQLITYKVISNEFNSRNLVNDDDAIVAASKCLKMVYYANVVGGEVDTNHNEEDDEEPIPESSELTLQELLGEERRNKKGLRVDPLETELGVKTLDCRKPLIPFEEFINEPLNEVLEMDKDYTFFKVETENKFSFMTCPFILNAVTKNLGLYYDNRIRMYSERRITVLTSLVQGQQLNPYLRLKVRRKHIIDDALVRLEMIAMENPADLKKQLYVEFEGEQGVDEGGVSKEFFQLVVEEIFNPDIGMFTYDESTKLFWFNPSSFETEGQFTLIGIVLGLAIYNNCILDVHGPMVVYRKLMGKKGTFRDLGDSHPVLYQSLKDLLEYVGNVEDDMMITFQISQTNLFQNPMMYDLKENGDKIPITNENRKEFVNLYSDYILNKSVEKQFKAFRRGRHMVTNESPLKYLFRPEEIELLICGSRNLDFQALEETTEYDGGYTRDSVLIREFWEIVHSFTDEQKRLFLQFTTGRDRAPVGGLGKLKMIIAKNGPDTERLPTSHTCFNVLLLPEYSSKEKLKERLLKAITYAKGFGM
With B3, the binding result in test [3] and in test [4] was “no binding” each time.

B4: GST-E6-AP fusion protein with amino acids 371 to 440 of SEQ ID NO:1 (SEQ ID NO:2) (other)
chain: ANVVGGEVDTNHNEEDDEEPIPESSELTLQELLGEERRNKKGLRVDPLETELGVKTLDCRKPLIPFEEFI
Take B4: the binding result in test [1] is recorded as “no binding”.
